Measured values published in publication PMC12100659.

Experiments:
[1] = biological target: α-synuclein (human) (UniProt P37840)
[2] = biological target: α-synuclein (human) (UniProt P37840); remark: listed apart in the source
[3] = biological target: α-synuclein (human) (UniProt P37840); remark: listed apart in the source
[4] = biological target: α-synuclein (human) (UniProt P37840); remark: listed apart in the source

apparent solubility of α-syn (free monomer in supernatant by HPLC-MS) with 0.12 and 2 μM JB6, pH 4.5 [1]: 2.3 μM
apparent solubility of α-syn (free monomer by 1D 1H NMR at about 300 h) with 250 nM JB6, pH 5.5 [2]: 0.47 μM
half-time of loss of free α-syn monomer by 1D 1H NMR, 20 μM α-syn with 250 nM JB6 (4.9 h without JB6), pH 5.5, 37 °C [3]: 35 h
apparent solubility of α-syn (free monomer in supernatant by HPLC-MS) with 7.8 to 62.5 nM JB6, pH 5.5 (0.8 μM for α-syn alone; 125 nM JB6 not at equilibrium, 16 μM) [4]: 7.7 μM
Substance: DNAJB6b (from UniProt O75190-2 1-241) (natural protein)
